Data as given in patent US20050187160A1.
“And” between values parts separate entries of the source, which are not always exact repeats. Equal entries are not always repeated. Each block holds one substance with its values, some of them ahead of it.

Target: T1, rabbit GH receptor (full length, stably expressed on murine FDC-P1 cells, GH-R4 line) (rabbit) (UniProt P19941)
T1 sequence (looked up): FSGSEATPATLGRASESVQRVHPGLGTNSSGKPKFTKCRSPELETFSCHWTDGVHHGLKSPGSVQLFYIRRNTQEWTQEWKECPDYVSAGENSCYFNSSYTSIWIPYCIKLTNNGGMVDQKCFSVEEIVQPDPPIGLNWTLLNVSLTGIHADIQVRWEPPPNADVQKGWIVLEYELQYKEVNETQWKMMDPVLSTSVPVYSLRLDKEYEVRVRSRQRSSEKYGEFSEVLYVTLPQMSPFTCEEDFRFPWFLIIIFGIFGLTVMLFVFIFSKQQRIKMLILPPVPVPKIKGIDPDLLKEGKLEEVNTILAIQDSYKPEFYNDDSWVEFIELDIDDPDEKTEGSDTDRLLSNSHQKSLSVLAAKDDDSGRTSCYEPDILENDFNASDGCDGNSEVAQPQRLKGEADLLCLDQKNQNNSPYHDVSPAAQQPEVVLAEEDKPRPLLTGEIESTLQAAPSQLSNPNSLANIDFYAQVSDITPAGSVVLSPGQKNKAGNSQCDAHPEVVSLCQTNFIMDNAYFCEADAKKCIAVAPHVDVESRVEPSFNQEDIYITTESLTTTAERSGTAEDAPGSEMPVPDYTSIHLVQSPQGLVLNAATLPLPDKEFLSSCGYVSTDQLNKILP
Assay: cell-based or functional assay

Substance: PEG-S144C hGH (mono-PEGylated S144C) (from UniProt P01241 27-217) (ligand)
EC50, individual experiment, cell proliferation assay (Example 1): 40 ng/mL and 45 ng/mL
mean EC50 (molar form), cell proliferation assay (Example 1): 2 nM

Substance: PEG-T3C hGH (mono-PEGylated T3C monomer) (from UniProt P01241 27-217) (ligand)
mean EC50 (molar form), cell proliferation assay (Example 1): 0.07 nM

Substance: hGH cysteine mutein S144C (from UniProt P01241 27-217) (ligand)
EC50, individual experiment (second value), proliferation of FDC-P1 cells expressing the rabbit GH receptor: 1.1 ng/mL
Mean EC50, proliferation of FDC-P1 cells expressing the rabbit GH receptor (GH-R4), MTS: 1.6 ng/mL

Substance: hGH cysteine mutein T148C (from UniProt P01241 27-217) (ligand)
EC50, individual experiment (T148C-lotA), proliferation of FDC-P1 cells expressing the rabbit GH receptor: 0.4 ng/mL and 0.5 ng/mL
EC50, individual experiment (T148C-lotB), proliferation of FDC-P1 cells expressing the rabbit GH receptor: 1.5 ng/mL and 1.9 ng/mL and 3.1 ng/mL
Mean EC50 (T148C-lotA), proliferation of FDC-P1 cells expressing the rabbit GH receptor (GH-R4), MTS: 0.5 ng/mL
Mean EC50 (T148C-lotB), proliferation of FDC-P1 cells expressing the rabbit GH receptor (GH-R4), MTS: 2.5 ng/mL

Second part, the substance after the results:

Mean EC50, proliferation of FDC-P1 cells expressing the rabbit GH receptor (GH-R4), MTS: 1.4 ng/mL
Substance: hGH cysteine mutein T3C, disulfide-linked homodimer (from UniProt P01241 27-217) (ligand)

EC50, individual experiment, proliferation of FDC-P1 cells expressing the rabbit GH receptor: 0.8 ng/mL and 1.1 ng/mL
Mean EC50, proliferation of FDC-P1 cells expressing the rabbit GH receptor (GH-R4), MTS: 0.8 ng/mL
Substance: wild-type recombinant human growth hormone (rhGH) secreted to the E. coli periplasm from stII-hGH (from UniProt P01241 27-217) (ligand)
